Measurements as given in the supplement of paper PMC12458215.
± gives the uncertainty stated by the source.

Tested on: HEK293T
Assay: plasma membrane surface immunostaining intensity (anti-HA, deep receptor scanning) (arbitrary fluorescence units); higher = higher plasma membrane expression

Sequence	plasma membrane surface immunostaining intensity (GPCR class: A)	plasma membrane surface immunostaining intensity (GPCR class: A (Olfactory))
MEPSATPGAQMGVPPGSREPSPVPPDYEDEFLRYLWRDYLYPKQYEWVLIAAYVAVFVVALVGNTLVCLAVWRNHHMRTVTNYFIVNLSLADVLVTAICLPASLLVDITESWLFGHALCKVIPYLQAVSVSVAVLTLSFIALDRWYAICHPLLFKSTARRARGSILGIWAVSLAIMVPQAAVMECSSVLPELANRTRLFSVCDERWADDLYPKIYHSCFFIVTYLAPLGLMAMAYFQIFRKLWGRQIPGTTSALVRNWKRPSDQLGDLEQGLSGEPQPRARAFLAEVKQMRARRKTAKMLMVVLLVFALCYLPISVLNVLKRVFGMFRQASDREAVYACFTFSHWLVYANSAANPIIYNFLSGKFREQFKAAFSCCLPGLGPCGSLKAPSPRSSASHKSLSLQSRCSISKISEHVVLTSVTTVLP [HCRTR1]	1070 ± 130	–
MERGNQTEVGNFLLLGFAEDSDMQLLLHGLFLSMYLVTIIGNLLIILTISSDSHLHTPMYFFLSNLSFADICFTSTTVPKMLVNIQTQSKMITFAGCLTQIFFFIAFGCLDNLLLTMTAYDRFVAICYPLHYTVIMNPRLCGLLVLGSWCISVMGSLLETLTILRLSFCTNMEIPHFFCDPSEVLKLACSDTFINNIVMYFVTIVLGVFPLCGILFSYSQIFSSVLRVSARGQHKAFSTCGSHLSVVSLFYGTGLGVYLSSAVTPPSRTSLAASVMYTMVTPMLNPFIYSLRNKDMKGSLGRLLLRATSLKEGTIAKLS [OR7C2]	–	131 ± 26
MERINHTSSVSEFILLGLSSRPEDQKTLFVLFLIVYLVTITGNLLIILAIRFNPHLQTPMYFFLSFLSLTDICFTTSVVPKMLMNFLSEKKTISYAGCLTQMYFLYALGNSDSCLLAVMAFDRYVAVCDPFHYVTTMSHHHCVLLVAFSCSFPHLHSLLHTLLLNRLTFCDSNVIHHFLCDLSPVLKLSCSSIFVNEIVQMTEAPIVLVTRFLCIAFSYIRILTTVLKIPSTSGKRKAFSTCGFYLTVVTLFYGSIFCVYLQPPSTYAVKDHVATIVYTVLSSMLNPFIYSLRNKDLKQGLRKLMSKRS [OR1L8]	–	177 ± 72
MERTNDSTSTEFFLVGLSAHPKLQTVFFVLILWMYLMILLGNGVLISVIIFDSHLHTPMYFFLCNLSFLDVCYTSSSVPLILASFLAVKKKVSFSGCMVQMFISFAMGATECMILGTMALDRYVAICYPLRYPVIMSKGAYVAMAAGSWVTGLVDSVVQTAFAMQLPFCANNVIKHFVCEILAILKLACADISINVISMTGSNLIVLVIPLLVISISYIFIVATILRIPSTEGKHKAFSTCSAHLTVVIIFYGTIFFMYAKPESKASVDSGNEDIIEALISLFYGVMTPMLNPLIYSLRNKDVKAAVKNILCRKNFSDGK [OR13C8]	–	129 ± 16
MESENRTVIREFILLGLTQSQDIQLLVFVLVLIFYFIILPGNFLIIFTIKSDPGLTAPLYFFLGNLAFLDASYSFIVAPRMLVDFLSAKKIISYRGCITQLFFLHFLGGGEGLLLVVMAFDRYIAICRPLHYPTVMNPRTCYAMMLALWLGGFVHSIIQVVLILRLPFCGPNQLDNFFCDVPQVIKLACTDTFVVELLMVFNSGLMTLLCFLGLLASYAVILCRIRGSSSEAKNKAMSTCITHIIVIFFMFGPGIFIYTRPFRAFPADKVVSLFHTVIFPLLNPVIYTLRNQEVKASMKKVFNKHIA [OR4N2]	–	134 ± 28
MESNQTWITEVILLGFQVDPALELFLFGFFLLFYSLTLMGNGIILGLIYLDSRLHTPMYVFLSHLAIVDMSYASSTVPKMLANLVMHKKVISFAPCILQTFLYLAFAITECLILVMMCYDRYVAICHPLQYTLIMNWRVCTVLASTCWIFSFLLALVHITLILRLPFCGPQKINHFFCQIMSVFKLACADTRLNQVVLFAGSAFILVGPLCLVLVSYLHILVAILRIQSGEGRRKAFSTCSSHLCVVGLFFGSAIVMYMAPKSSHSQERRKILSLFYSLFNPILNPLIYSLRNAEVKGALKRVLWKQRSM [OR2A12]	–	126 ± 28
MESSFSFGVILAVLASLIIATNTLVAVAVLLLIHKNDGVSLCFTLNLAVADTLIGVAISGLLTDQLSSPSRPTQKTLCSLRMAFVTSSAAASVLTVMLITFDRYLAIKQPFRYLKIMSGFVAGACIAGLWLVSYLIGFLPLGIPMFQQTAYKGQCSFFAVFHPHFVLTLSCVGFFPAMLLFVFFYCDMLKIASMHSQQIRKMEHAGAMAGGYRSPRTPSDFKALRTVSVLIGSFALSWTPFLITGIVQVACQECHLYLVLERYLWLLGVGNSLLNPLIYAYWQKEVRLQLYHMALGVKKVLTSFLLFLSARNCGPERPRESSCHIVTISSSEFDG [GPR119]	702 ± 99	–
MESSGNPESTTFFYYDLQSQPCENQAWVFATLATTVLYCLVFLLSLVGNSLVLWVLVKYESLESLTNIFILNLCLSDLVFACLLPVWISPYHWGWVLGDFLCKLLNMIFSISLYSSIFFLTIMTIHRYLSVVSPLSTLRVPTLRCRVLVTMAVWVASILSSILDTIFHKVLSSGCDYSELTWYLTSVYQHNLFFLLSLGIILFCYVEILRTLFRSRSKRRHRTVKLIFAIVVAYFLSWGPYNFTLFLQTLFRTQIIRSCEAKQQLEYALLICRNLAFSHCCFNPVLYVFVGVKFRTHLKHVLRQFWFCRLQAPSPASIPHSPGAFAYEGASFY [XCR1]	190 ± 16	–
METNFSIPLNETEEVLPEPAGHTVLWIFSLLVHGVTFVFGVLGNGLVIWVAGFRMTRTVNTICYLNLALADFSFSAILPFRMVSVAMREKWPFGSFLCKLVHVMIDINLFVSVYLITIIALDRCICVLHPAWAQNHRTMSLAKRVMTGLWIFTIVLTLPNFIFWTTISTTNGDTYCIFNFAFWGDTAVERLNVFITMAKVFLILHFIIGFSVPMSIITVCYGIIAAKIHRNHMIKSSRPLRVFAAVVASFFICWFPYELIGILMAVWLKEMLLNGKYKIILVLINPTSSLAFFNSCLNPILYVFMGRNFQERLIRSLPTSLERALTEVPDSAQTSNTDTTSASPPEETELQAM [FPR3]	6430 ± 58	–
METNFSTPLNEYEEVSYESAGYTVLRILPLVVLGVTFVLGVLGNGLVIWVAGFRMTRTVTTICYLNLALADFSFTATLPFLIVSMAMGEKWPFGWFLCKLIHIVVDINLFGSVFLIGFIALDRCICVLHPVWAQNHRTVSLAMKVIVGPWILALVLTLPVFLFLTTVTIPNGDTYCTFNFASWGGTPEERLKVAITMLTARGIIRFVIGFSLPMSIVAICYGLIAAKIHKKGMIKSSRPLRVLTAVVASFFICWFPFQLVALLGTVWLKEMLFYGKYKIIDILVNPTSSLAFFNSCLNPMLYVFVGQDFRERLIHSLPTSLERALSEDSAPTNDTAANSASPPAETELQAM [FPR2]	6515 ± 60	–
METNSSLPTNISGGTPAVSAGYLFLDIITYLVFAVTFVLGVLGNGLVIWVAGFRMTHTVTTISYLNLAVADFCFTSTLPFFMVRKAMGGHWPFGWFLCKFVFTIVDINLFGSVFLIALIALDRCVCVLHPVWTQNHRTVSLAKKVIIGPWVMALLLTLPVIIRVTTVPGKTGTVACTFNFSPWTNDPKERINVAVAMLTVRGIIRFIIGFSAPMSIVAVSYGLIATKIHKQGLIKSSRPLRVLSFVAAAFFLCWSPYQVVALIATVRIRELLQGMYKEIGIAVDVTSALAFFNSCLNPMLYVFMGQDFRERLIHALPASLERALTEDSTQTSDTATNSTLPSAEVELQAK [FPR1]	6448 ± 46	–
METPNTTEDYDTTTEFDYGDATPCQKVNERAFGAQLLPPLYSLVFVIGLVGNILVVLVLVQYKRLKNMTSIYLLNLAISDLLFLFTLPFWIDYKLKDDWVFGDAMCKILSGFYYTGLYSEIFFIILLTIDRYLAIVHAVFALRARTVTFGVITSIIIWALAILASMPGLYFSKTQWEFTHHTCSLHFPHESLREWKLFQALKLNLFGLVLPLLVMIICYTGIIKILLRRPNEKKSKAVRLIFVIMIIFFLFWTPYNLTILISVFQDFLFTHECEQSRHLDLAVQVTEVIAYTHCCVNPVIYAFVGERFRKYLRQLFHRRVAVHLVKWLPFLSVDRLERVSSTSPSTGEHELSAGF [CCR1]	5560 ± 180	–
METQNLTVVTEFILLGLTQSQDAQLLVFVLVLIFYLIILPGNFLIIFTIKSDPGLTAPLYFFLGNLALLDASYSFIVVPRMLVDFLSEKKVISYRSCITQLFFLHFLGAGEMFLLVVMAFDRYIAICRPLHYSTIMNPRACYALSLVLWLGGFIHSIVQVALILHLPFCGPNQLDNFFCDVPQVIKLACTNTFVVELLMVSNSGLLSLLCFLGLLASYAVILCRIREHSSEGKSKAISTCTTHIIIIFLMFGPAIFIYTCPFQAFPADKVVSLFHTVIFPLMNPVIYTLRNQEVKASMRKLLSQHMFC [OR4N5]	–	216 ± 66
